The labels stand for the following.
B1: Twister Ribozyme (parent)
chain: AACACUGCCAAUGCCGGUCCCAAGCCCGGAUAAAAGUGGAGGGGGCGG

The data set covers variants of B1. As to the kind of experiment: self-cleavage, relative activity (ratio to wild type); higher = more cleavage; co-transcriptional.
With A33C G38A, the self-cleavage turned out to be 0.867.

Regarding C5G G41A, the self-cleavage was found to be 0.168.

Regarding C8U A30G, the self-cleavage is 0.766.

On to C9U G36U, for which the self-cleavage was 0.164.

G7C G39C: the self-cleavage is 0.071.

Regarding A30G A32U, the self-cleavage is 0.962.

In the case of A1G A23C, the self-cleavage stood at 0.202.

As for G36A, the self-cleavage was 0.843.

Take A23C A32U: the self-cleavage was 0.241.

As to C5A U31C, the self-cleavage was 0.653.

On to G7U A11C, for which the self-cleavage was found to be 0.0886.

Turning to A4U U31G, the self-cleavage stood at 0.161.

C3U A10U: the self-cleavage is 0.584.

Consider U18C G36U, for which the self-cleavage was determined as 0.0651.

C19A U31C: the self-cleavage was 0.375.

Turning to C3A C14U, the self-cleavage was found to be 0.176.

In the case of C9G C26U, the self-cleavage was found to be 0.0719.

As to A4G G39U, the self-cleavage stood at 0.153.

Take G24C G43C: the self-cleavage was 0.0497.

As to G7C C15A, the self-cleavage was determined as 0.0454.

For C27U G45C, the self-cleavage was 0.354.

Consider C9A C27A, for which the self-cleavage was found to be 0.103.

In the case of A1C U37C, the self-cleavage came to 0.174.

Take C8G G24C: the self-cleavage came out at 0.993.

In the case of C8G G24A, the self-cleavage was determined as 0.203.

Consider G38C G45A, for which the self-cleavage worked out at 0.736.

In the case of U6G A30U, the self-cleavage was 0.687.

Turning to A11U C25G, the self-cleavage is 0.501.

For A2U G17C, the self-cleavage turned out to be 0.0754.

On to A2G G16U, for which the self-cleavage worked out at 0.301.

Regarding G13U U37A, the self-cleavage turned out to be 0.133.

With G41A C46A, the self-cleavage came out at 0.356.

As for C19G A22U, the self-cleavage was 0.0871.

A33C G44C: the self-cleavage was found to be 0.852.

In the case of C21G C25U, the self-cleavage is 0.0625.

As to A2C A34U, the self-cleavage was 0.0746.

Regarding A2C A34C, the self-cleavage was 0.108.

As to A35G G42A, the self-cleavage is 0.115.

Turning to C15U C19U, the self-cleavage came to 0.902.

Regarding A4C A33U, the self-cleavage turned out to be 0.152.

On to C26U G39U, for which the self-cleavage is 0.102.

On to C21U G29U, for which the self-cleavage is 0.0831.

For the variant C8G G17C, the self-cleavage is 0.07.

Consider G41C G45U, for which the self-cleavage is 0.429.

For A1C G7A, the self-cleavage stood at 0.155.

Consider C25U A34U, for which the self-cleavage was determined as 0.633.

Regarding A23C A30G, the self-cleavage worked out at 0.385.

As for C8A G43U, the self-cleavage was determined as 0.119.

Regarding G7U A22U, the self-cleavage amounted to 0.0446.

U6C G17C: the self-cleavage came out at 0.0484.

Take U37G C46A: the self-cleavage is 0.619.

Regarding C25U G45A, the self-cleavage stood at 0.587.

With C20A A32G, the self-cleavage turned out to be 0.145.

In the case of C8U G41C, the self-cleavage was 0.0951.

Regarding C9A G24A, the self-cleavage worked out at 0.0968.

Take C27U G48C: the self-cleavage was 0.844.

With G13U C15G, the self-cleavage came out at 0.108.

For the variant U18C G42U, the self-cleavage was 0.0957.

As to A2C G29C, the self-cleavage is 0.0975.

Consider G43C G45C, for which the self-cleavage turned out to be 0.267.

As to U18C C26A, the self-cleavage turned out to be 0.0527.

G16U G36U: the self-cleavage amounted to 0.124.

Turning to C8U G38A, the self-cleavage was 0.572.

G7C U37C: the self-cleavage turned out to be 0.0652.

In the case of A33G C46G, the self-cleavage amounted to 0.855.

On to C8A A35U, for which the self-cleavage was 0.477.

In the case of G28A A35G, the self-cleavage amounted to 0.575.

In the case of A22G G38C, the self-cleavage is 0.0945.

Consider A22G G24C, for which the self-cleavage is 0.0998.

G28A G43U: the self-cleavage was 0.326.

On to C27G G36C, for which the self-cleavage stood at 0.0945.

Regarding C19G C46G, the self-cleavage was determined as 0.165.

For the variant U37A G48U, the self-cleavage was 0.811.

As for U12A G47A, the self-cleavage was determined as 1.13.

Turning to C26U C46A, the self-cleavage amounted to 0.207.

For the variant C25G G44C, the self-cleavage turned out to be 0.248.

Regarding C5G G38A, the self-cleavage is 0.298.

On to C5G C27G, for which the self-cleavage was 0.0623.

As to C9G G16C, the self-cleavage is 0.0741.

A2C G39C: the self-cleavage turned out to be 0.105.

As for C14U C15G, the self-cleavage came out at 0.36.

For the variant C25A G39A, the self-cleavage was found to be 0.0801.

U6A G42C: the self-cleavage turned out to be 0.291.

On to C3A G29U, for which the self-cleavage is 0.231.

Regarding A30C G48U, the self-cleavage was 0.759.

For the variant C5U, the self-cleavage was 0.887.

Take C5G: the self-cleavage was 0.85.

For the variant G17A A22G, the self-cleavage was 0.136.

Consider C15U G48A, for which the self-cleavage worked out at 0.765.

Consider A10G C26U, for which the self-cleavage was 0.285.

On to G13C G45U, for which the self-cleavage came out at 0.144.

As for C3G A23U, the self-cleavage amounted to 0.107.

Consider C14A G17U, for which the self-cleavage was determined as 0.361.

Regarding G28C A32C, the self-cleavage came out at 0.728.

With G24C G39U, the self-cleavage was 0.0664.

For the variant A2C U31C, the self-cleavage was 0.0894.

For G7C A35C, the self-cleavage was determined as 0.064.

Regarding A4U C19A, the self-cleavage came to 0.0659.

Take C14U G41C: the self-cleavage was 0.343.

Regarding A30C G42U, the self-cleavage was 0.0949.

As to G17C A32U, the self-cleavage worked out at 0.109.

Turning to C19G, the self-cleavage is 0.485.

On to A11C U37A, for which the self-cleavage came to 0.886.

A2U G28A: the self-cleavage worked out at 0.409.

U18C U37G: the self-cleavage was found to be 0.155.

For the variant U18A G24A, the self-cleavage is 0.0868.

With A10C G28C, the self-cleavage was found to be 0.822.

In the case of C26A A34C, the self-cleavage came out at 0.0918.

As to C26A A34G, the self-cleavage is 0.156.

Consider C27A A32C, for which the self-cleavage turned out to be 0.484.

With U31G A35G, the self-cleavage was 0.682.

Consider G29C A40C, for which the self-cleavage stood at 0.153.

For C19U G48U, the self-cleavage worked out at 0.91.

With C19U G48C, the self-cleavage stood at 1.04.

As to C15U G44C, the self-cleavage came to 0.812.

With G17C G44A, the self-cleavage is 0.109.

Consider C20G C21U, for which the self-cleavage came out at 0.115.

As to C8G G47U, the self-cleavage was found to be 0.142.

Regarding C8G G47A, the self-cleavage worked out at 0.208.

Consider G24A G43A, for which the self-cleavage was found to be 0.102.

As to G43A G45A, the self-cleavage is 0.318.

With C14G A33U, the self-cleavage came to 0.172.

C25A G48C: the self-cleavage was 0.137.

For C9G A35G, the self-cleavage turned out to be 0.591.

Take G24U C25G: the self-cleavage was found to be 0.104.

For G47A G48C, the self-cleavage was found to be 0.942.

A2C A11U: the self-cleavage amounted to 0.108.

Regarding G17U A40G, the self-cleavage worked out at 0.0578.

For the variant A2U U18C, the self-cleavage turned out to be 0.147.

A1C A35C: the self-cleavage stood at 0.161.

A11G G13C: the self-cleavage came to 0.345.

As for A1C A34C, the self-cleavage worked out at 0.214.

Take G42A: the self-cleavage amounted to 0.516.

In the case of C19A G48A, the self-cleavage amounted to 0.161.

C19A G48C: the self-cleavage is 0.149.

Consider G16C G24C, for which the self-cleavage was 0.0655.

Consider G45C G47A, for which the self-cleavage was 0.305.

For U18A G39A, the self-cleavage came to 0.104.

For C27U G42U, the self-cleavage turned out to be 0.177.

As for U18A G43U, the self-cleavage was determined as 0.125.

Regarding A10G G16U, the self-cleavage came to 1.14.

As for G24C G36U, the self-cleavage stood at 0.0983.

As to A11U C19A, the self-cleavage is 0.386.

Consider A4C C8U, for which the self-cleavage was found to be 0.108.

Turning to G17A C25U, the self-cleavage was 0.255.

Turning to C9G C14U, the self-cleavage amounted to 0.624.

For the variant G7U G13C, the self-cleavage came out at 0.0504.

Consider C3G G28C, for which the self-cleavage was 0.167.

With G16U A30U, the self-cleavage was 1.08.

In the case of C25U G42U, the self-cleavage is 0.0953.

Take C3G G29C: the self-cleavage amounted to 0.236.

Regarding C9A G44C, the self-cleavage was 0.425.

Consider G16C G42A, for which the self-cleavage amounted to 0.139.

As for G24U A30C, the self-cleavage stood at 0.0633.

Consider C14U G38C, for which the self-cleavage was determined as 0.909.

A2C C8A: the self-cleavage came out at 0.0745.

On to C15A C26A, for which the self-cleavage was 0.0686.

As for C3A G38A, the self-cleavage was 0.268.

In the case of G7A A34U, the self-cleavage amounted to 0.154.

As for A22G G42U, the self-cleavage was 0.0653.

Take G24C G47C: the self-cleavage worked out at 0.0946.

For the variant C15G G39C, the self-cleavage was 0.104.

C19A G43U: the self-cleavage was determined as 0.732.

Take C15G A40C: the self-cleavage is 0.0616.

Consider G24U G45C, for which the self-cleavage is 0.0947.

Take G16C G45C: the self-cleavage was 0.249.

For U31C U37G, the self-cleavage came out at 1.

Values taken from the RNAGym collection of RNA variant scans (doi:10.7554/elife.80360).
